This passage reports stoichiometry N results from paper PMC5989136.

The experiment addresses H4 conjugated to SUMO (UniProt P62799). Nature of the experiment: refolding of the histone complex, analysed by SDS-PAGE.

Broadly, the stoichiometry N is a count of units in the complex or per binding partner. On to “H3K23ac (H3 with acetylation at K23) (from UniProt P84233 1-136) (natural protein)”, for which the stoichiometry N was 1 H3K23ac:H4.
